± gives the standard error. Fewer inactive variants are shown than the library holds.
B1: glmS ribozyme (parent)
chain: AUAAAAGCGCCAGAACUACAGAAAUGUAGUUGACGAGGAGGAGGUUUAUCGAAUUUUCGGCGGAUGCCUCCAAA

Key:
Conditions in all cases: with glucosamine-6-phosphate
glucosamine-6-phosphate [1] = variants of: B1; assay: self-cleavage kobs at 640 uM GlcN6P; higher = faster cleavage; RNA array
In short: (§1)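 kcat and KM were obtained from weighted Michaelis–Menten fits across concentrations of kobs values. Those came from one- or two-exponential decay fits to per-tile medians normalised to baseline and to non-cleaving reference variants. The variants were barcoded ribozymes transcribed in situ by E. coli RNA polymerase on sequenced MiSeq chips and tracked through a hybridised Cy3 probe at 37 °C, with 40 μM to 10 mM glucosamine-6-phosphate in HEPES/KCl/Mg(OAc)2 buffer flowed in.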

glucosamine-6-phosphate [2] = variants of: B1; assay: self-cleavage kobs at 2500 uM GlcN6P; higher = faster cleavage; RNA array
In short: as §1

glucosamine-6-phosphate [3] = variants of: B1; assay: self-cleavage kobs at 10000 uM GlcN6P; higher = faster cleavage; RNA array
In short: as §1

Variant | self-cleavage kobs at 640 uM GlcN6P (glucosamine-6-phosphate [1]) [s⁻¹] | self-cleavage kobs at 2500 uM GlcN6P (glucosamine-6-phosphate [2]) [s⁻¹] | self-cleavage kobs at 10000 uM GlcN6P (glucosamine-6-phosphate [3]) [s⁻¹]
A15G C58A C68G | 0.000265 ± 8.6e-05 |  | 
A14G U31G C67G | 6.87e-05 ± 2.7e-05 | 5.23e-05 ± 1.9e-05 | 
A14U A15U G60U C71U | < 1e-05 |  | < 1e-05
A14G A15C U31C G40C U54A | 4.07e-05 ± 1e-05 | 0.000142 ± 3.5e-05 | 5.3e-05 ± 1.6e-05
A14G A36C G66A | < 1e-05 |  | 
A14C G29A G35A G59A | < 1e-05 | < 1e-05 | 
A15U G41A G44U C50U | < 1e-05 |  | 
A14U G40A A53C C71A | 5.44e-05 ± 1.1e-05 | 0.000153 ± 2.6e-05 | 
A14C U45A U56C | 8.23e-05 ± 3.9e-05 | 0.000421 ± 0.00012 | 
A15U U30A G32C U56C U57C C61G | < 1e-05 | < 1e-05 | 
A15G U45C C71U | 0.000376 ± 0.00017 | 0.000625 ± 0.0003 | 
A15U G37A | 0.000117 ± 2.4e-05 | 0.000103 ± 2.8e-05 | 0.000568 ± 0.00011
A15C G32A U55C G59U | < 1e-05 |  | 
C16A G38U C67G | 0.0005 ± 0.00011 |  | 
A15C C16G A39C | 3.83e-05 ± 1.7e-05 | 0.000198 ± 3.4e-05 | 
A15U C16U G51C C58G C61G C67U | 0.000417 ± 8.1e-05 |  | 
A14G C16G A39U A52C | < 1e-05 |  | 
A14U G35A G63U | < 1e-05 |  | 
A14C U49G C70G | 0.000526 ± 0.00023 |  | 
A15G U30A A39U | 0.00404 ± 0.0016 | 0.00871 ± 0.0024 | 0.0247 ± 0.0076
A14G A33U G35C | < 1e-05 |  | 
A14U A39C A64G | 0.000213 ± 5e-05 | 0.000771 ± 0.0002 | 

Variant | self-cleavage kobs at 640 uM GlcN6P (glucosamine-6-phosphate [1]) [s⁻¹] | self-cleavage kobs at 2500 uM GlcN6P (glucosamine-6-phosphate [2]) [s⁻¹] | self-cleavage kobs at 10000 uM GlcN6P (glucosamine-6-phosphate [3]) [s⁻¹]
A14U U30C C70G | 9.88e-05 ± 3e-05 | 8.37e-05 ± 2.2e-05 | 
C16A G41A G43U C61G C68U | < 1e-05 | < 1e-05 | 
A14C U56A C71U | 0.000174 ± 4.2e-05 | 0.000691 ± 0.00019 | 
A14G A36U G41A | < 1e-05 | < 1e-05 | < 1e-05
A14U A36C G37A G38A | < 1e-05 |  | 
A15G U31G A39U G60U | < 1e-05 | < 1e-05 | 
A14U C34A C70G | < 1e-05 | < 1e-05 | 
A14G G66U C67G | 0.000361 ± 7.9e-05 | 0.00105 ± 0.00021 | 
A14G U45G C58U G62A | < 1e-05 | < 1e-05 | 
A15U U49C C68G | 0.00159 ± 0.00057 |  | 
A14G A42G C67A | 0.01 ± 0.0028 | 0.00856 ± 0.0041 | 
A14G G41U C71U | 0.000155 ± 4.4e-05 | 0.00102 ± 0.00029 | 
A15U C16G U46C | < 1e-05 |  | 
C16A U31C G41C | < 1e-05 | < 1e-05 | 
A15U G35C C50U | < 1e-05 |  | 
A14C U47C | 0.000137 ± 2.2e-05 |  | 0.00052 ± 0.00018
A15C C58G C70A | 5.23e-05 ± 1.5e-05 | 4e-05 ± 2e-05 | 
C16G G29A A39C | 0.000119 ± 2.9e-05 | 0.00027 ± 6.6e-05 | 
A14C U31G G32A C70G | 6.55e-05 ± 1.4e-05 | 8.05e-05 ± 2e-05 | 
A14G G44U U46A | 0.000181 ± 4.5e-05 | 0.000253 ± 8.6e-05 | 
C16A G40U U57G | < 1e-05 | < 1e-05 | 
A15C C58A C67G C71G | 4.54e-05 ± 1.8e-05 |  | 

Variant | self-cleavage kobs at 640 uM GlcN6P (glucosamine-6-phosphate [1]) [s⁻¹] | self-cleavage kobs at 2500 uM GlcN6P (glucosamine-6-phosphate [2]) [s⁻¹] | self-cleavage kobs at 10000 uM GlcN6P (glucosamine-6-phosphate [3]) [s⁻¹]
C16U A33G C68G | 5.07e-05 ± 2.3e-05 |  | 
A14C G38U G44A G63U C67U | < 1e-05 |  | 
A15G G29C G38A U47C C71A | < 1e-05 | < 1e-05 | 
C16G U56A C71G | 7.67e-05 ± 1.7e-05 |  | 
A14G U49A G63U | < 1e-05 |  | 
A15U U30G U69A | 0.000116 ± 2.5e-05 | 0.000105 ± 2.9e-05 | 
A14U G29U C50G | 8.61e-05 ± 3.2e-05 |  | 
A14U U30C U49A C50A C70G | 8.96e-05 ± 2.3e-05 |  | 
C16A A53G G62A | < 1e-05 |  | 
A15G G44U A52C U69C | < 1e-05 |  | 
A14G A15G U31G U45G C61G | < 1e-05 | < 1e-05 | 
A15U U31C A39C | 4.66e-05 ± 1.3e-05 | 0.000126 ± 2.4e-05 | 
A14U A53U C67G | 0.000162 ± 4.5e-05 |  | 
A15G G35C A53U | < 1e-05 | < 1e-05 | < 1e-05
A15U U30A C68A | 0.000134 ± 5.1e-05 | 0.000121 ± 4.8e-05 | 
A15C C50U G51A G62U U69C | 3.56e-05 ± 1.7e-05 |  | 
C16G G43U G66A | < 1e-05 |  | 
A14U A36U U56G C67G | 0.000671 ± 0.0003 |  | 
C16A A52G C70U | 0.00109 ± 0.00029 |  | 
A14C C50A C61A | 4.16e-05 ± 1.7e-05 |  | 
A14U U17C A18U C19A G59U G66A | < 1e-05 | < 1e-05 | 

Reference: the supplement of paper PMC7125110
